The results in this text go back to US20060165684A1 (published 2006).

The chains are these.
T1: peptide 6 (TIRC7 derived peptide)
T1 construct: also called Peptid6; Vol 6
T1 peptide: DLPDASVNGWSSDE

B1: chimeric Neliximab (antibody, V domains shown)
VH: EVQLQQSGPELVKPGASVKMSCKASGYTFTTYVMHWVKQKPGQGLEWIGYINPYNDGTNYNEKFKGKATLTSDKSSSTAYMELSTLTSEDSAVYYCAEFITKTVGGSNWYLDVWGAGTTVTVSS
VL: QIVLTQSPAIMSASPGEKVTMTCSASSSISYIHWFQQKPGTSPKRWIYDTSKLPSGVPARFSGSGSGTSYSLTISSMEAEDAATYYCHQRSSYTWTFGGGTKLEIKR
notes: Murine VH and VL joined to human gamma 1 (pConGamma1f vector) and human kappa (pConKappa vector) constant regions, made in NSO or CHO cells; also called chimeric antibody of clone 17-1; chimerized #17
B2: murine Neliximab (antibody, V domains shown)
VH: EVQLQQSGPELVKPGASVKMSCKASGYTFTTYVMHWVKQKPGQGLEWIGYINPYNDGTNYNEKFKGKATLTSDKSSSTAYMELSTLTSEDSAVYYCAEFITKTVGGSNWYLDVWGAGTTVTVSS
VL: QIVLTQSPAIMSASPGEKVTMTCSASSSISYIHWFQQKPGTSPKRWIYDTSKLPSGVPARFSGSGSGTSYSLTISSMEAEDAATYYCHQRSSYTWTFGGGTKLEIKR
notes: also called #17; Clone 17
B3: murine Metiliximab (antibody, V domains shown)
VH: EVQLQQSGPELVKPGASVKMSCKASGYTFTSYVIHWVKQKPGQGLEWIGYINPYNYDTKYNEKFKGEATLTSDKSSNTAYMELSSLTSEDSAVYYCAGFFTRAVGGSYWYLDVWGAGTTVTVSS
VL: QIVLTQSPAIMSASPGEKVTMTCSASSSISYIHWFQQKPGTSPKRWIYDTSKLVSGVPARFSGSGSGTSYSLTISNMEAADAATYYCHQRSASTWTFGGGTKLEIKR
notes: also called #9; Clone 9

The assay addresses T1, peptide 6 (TIRC7 derived peptide). The assay can be described thus: solution equilibrium titration with peptide, free antibody by ELISA (method of Friquet et al 1985), Klotz plot. A general note: ELISA stands for enzyme-linked immunosorbent assay.
The Kd is the concentration at which binding is half-saturated. Higher therefore signals weaker binding. In the case of B1, the Kd was found to be 1 nM.

B2 displayed a Kd of 1 nM. That is a single-digit nanomolar value.

B3 yielded a Kd of 0.5 nM. This Kd lies about 2-fold lower than the previous one.
